Experimental findings from patent publication US20180155451A1 (published 2018) are described below.

One test deals with T1, FcγRIa (human, UniProt P12314 16-292).
T1 construct: extracellular domain; also called FcgRI; 1a; not shown: His tag at the C terminus
The experiment in a line: SPR (Biacore), captured antibody, soluble FcγR; relative to GpH7-A5/GpH7-B3/GpL16-k0.

Another test concerns the target T2, FcγRIIb (human, UniProt P31994 43-217).
T2 construct: extracellular domain; also called FcgRIIb; 2b; not shown: His tag at the C terminus
T2 sequence (looked up): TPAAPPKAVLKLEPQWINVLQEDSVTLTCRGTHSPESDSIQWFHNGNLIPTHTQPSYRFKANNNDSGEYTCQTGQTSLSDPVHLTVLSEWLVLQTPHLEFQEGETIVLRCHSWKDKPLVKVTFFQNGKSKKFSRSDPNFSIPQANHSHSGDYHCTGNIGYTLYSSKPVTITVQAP
The description is as above.

The target of test [1] is T3, FcγRIa extracellular domain with C-terminal His tag (human, UniProt P12314 16-292).
T3 construct: extracellular domain; soluble receptor expressed in FreeStyle293 cells, used as analyte in Biacore; also called FcgRI; 1a; not shown: His tag attached to the C terminus
T3 sequence (P12314 16-292): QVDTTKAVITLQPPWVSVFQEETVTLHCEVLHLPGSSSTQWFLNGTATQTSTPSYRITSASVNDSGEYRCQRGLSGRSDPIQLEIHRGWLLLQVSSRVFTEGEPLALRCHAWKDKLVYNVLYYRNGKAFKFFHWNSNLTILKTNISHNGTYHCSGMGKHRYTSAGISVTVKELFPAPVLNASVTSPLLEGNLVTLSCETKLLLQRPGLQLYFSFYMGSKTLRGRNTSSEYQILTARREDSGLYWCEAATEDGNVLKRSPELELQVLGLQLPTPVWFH
The experiment in a line: SPR (Biacore), antibody captured on antigen peptide chip, FcγR as analyte; relative binding. On the technique in general: Surface plasmon resonance follows binding to a sensor surface in real time, without labels.

Test [2] deals with T4, FcγRIIb extracellular domain with C-terminal His tag (human, UniProt P31994 43-217).
T4 construct: extracellular domain; soluble receptor expressed in FreeStyle293 cells, used as analyte in Biacore; also called FcgRIIb; 2b; not shown: His tag attached to the C terminus
T4 sequence (looked up): T2 sequence (looked up)
The description is as above.

T1 sequence (P12314 16-292): as above

B1: GpH7-A5/GpH7-B3 variant Q295_11K/GpL16-k0 (antibody, human IgG1, kappa)
heavy 1: not shown
heavy 2: not shown
light: DIVMTQSPLSLPVTPGEPASISCQASESLVHSNRNTYLHWYLQKPGQSPQLLIYKVSNRFSGVPDRFSGSGSGTDFTLKISRVEAEDVGVYYCSQNTHVPPTFGQGTKVEIERTVAAPSVFIFPPSDEQLKSGTASVVCLLNNFYPREAKVQWKVDNALQSGNSQESVTEQDSKDSTYSLSSTLTLSKADYEKHKVYACEVTHQGLSSPVTKSFNRGEC
notes: He Ab: mutation only in the GpH7-B3 H chain; EU numbering; also called He Ab
Take B1: the He/Con_1a with FcγRIa was 101 relative, HeCon Ab = 100. In the test with FcγRIIb, the He/Con_2b was 70.4 relative, HeCon Ab = 100.

B2: GpH7-A5/GpH7-B3 variant D270_01G/GpL16-k0 (antibody, human IgG1, kappa)
heavy 1: not shown
heavy 2: not shown
light: B1 light
notes: heterodimerized anti-glypican-3 IgG1; alteration in the GpH7-B3 chain only; also called He Ab
B2: the He/Con_1a in test [1] is 76.3 % of control GpH7-A5/GpH7-B3/GpL16-k0 (=100). Moreover, the He/Con_2b in test [2] was 30.5 % of control GpH7-A5/GpH7-B3/GpL16-k0 (=100).

B3: GpH7-A5/GpH7-B3 variant Q295_12R/GpL16-k0 (antibody, human IgG1, kappa)
heavy 1: not shown
heavy 2: not shown
light: B1 light
notes: as for B1
As for B3, in the test with FcγRIa, the He/Con_1a was 100 relative, HeCon Ab = 100. The He/Con_2b with FcγRIIb is 65.2 relative, HeCon Ab = 100.

B4: GpH7-A5/GpH7-B3 variant Y296_06M/GpL16-k0 (antibody, human IgG1, kappa)
heavy 1: not shown
heavy 2: not shown
light: B1 light
notes: as for B1
As for B4, the He/Con_1a with FcγRIa was 104 relative, HeCon Ab = 100. The He/Con_2b with FcγRIIb is 87.8 relative, HeCon Ab = 100.

B5: GpH7-A5/GpH7-B3 variant Q295_18N/GpL16-k0 (antibody, human IgG1, kappa)
heavy 1: not shown
heavy 2: not shown
light: B1 light
notes: as for B1
On to B5, for which, in the test with FcγRIa, the He/Con_1a is 102 relative, HeCon Ab = 100. Besides, the He/Con_2b with FcγRIIb is 64.9 relative, HeCon Ab = 100.

B6: GpH7-A5/GpH7-B3 variant Y296_11K/GpL16-k0 (antibody, human IgG1, kappa)
heavy 1: not shown
heavy 2: not shown
light: B1 light
notes: as for B1
B6: the He/Con_1a in the test with FcγRIa is 105 relative, HeCon Ab = 100. Also, the He/Con_2b in the test with FcγRIIb was 72.8 relative, HeCon Ab = 100.

B7: GpH7-A5/GpH7-B3 variant Q295_15Y/GpL16-k0 (antibody, human IgG1, kappa)
heavy 1: not shown
heavy 2: not shown
light: B1 light
notes: as for B1
Turning to B7, in the test with FcγRIa, the He/Con_1a was 102 relative, HeCon Ab = 100. Further, in the test with FcγRIIb, the He/Con_2b was 65.4 relative, HeCon Ab = 100.

B8: GpH7-A5/GpH7-B3 variant S298_10E/GpL16-k0 (antibody, human IgG1, kappa)
heavy 1: not shown
heavy 2: not shown
light: B1 light
notes: as for B1
For the molecule B8, in the test with FcγRIa, the He/Con_1a was 108 relative, HeCon Ab = 100. For the same molecule, the He/Con_2b in the test with FcγRIIb is 47.6 relative, HeCon Ab = 100.

B9: GpH7-A5/GpH7-B3 variant S298_02A/GpL16-k0 (antibody, human IgG1, kappa)
heavy 1: not shown
heavy 2: not shown
light: B1 light
notes: as for B1
For B9, the He/Con_1a with FcγRIa is 107 relative, HeCon Ab = 100. Moreover, the He/Con_2b with FcγRIIb was 73.4 relative, HeCon Ab = 100.

B10: GpH7-A5/GpH7-B3 variant S298_12R/GpL16-k0 (antibody, human IgG1, kappa)
heavy 1: not shown
heavy 2: not shown
light: B1 light
notes: as for B1
On to B10, for which, in the test with FcγRIa, the He/Con_1a was 109 relative, HeCon Ab = 100. For the same molecule, the He/Con_2b in the test with FcγRIIb is 57.8 relative, HeCon Ab = 100.

B11: GpH7-A5/GpH7-B3 variant S298_11K/GpL16-k0 (antibody, human IgG1, kappa)
heavy 1: not shown
heavy 2: not shown
light: B1 light
notes: as for B1
B11: the He/Con_1a with FcγRIa is 109 relative, HeCon Ab = 100. The He/Con_2b with FcγRIIb is 61.3 relative, HeCon Ab = 100.

B12: GpH7-A5/GpH7-B3 variant Y296_03V/GpL16-k0 (antibody, human IgG1, kappa)
heavy 1: not shown
heavy 2: not shown
light: B1 light
notes: as for B1
Take B12: the He/Con_1a in the test with FcγRIa is 104 relative, HeCon Ab = 100. In addition, the He/Con_2b in the test with FcγRIIb was 79.3 relative, HeCon Ab = 100.

B13: GpH7-A5/GpH7-B3 variant S298_15Y/GpL16-k0 (antibody, human IgG1, kappa)
heavy 1: not shown
heavy 2: not shown
light: B1 light
notes: as for B1
For the molecule B13, the He/Con_1a with FcγRIa was 107 relative, HeCon Ab = 100. Besides, in the test with FcγRIIb, the He/Con_2b is 61.4 relative, HeCon Ab = 100.

B14: GpH7-A5/GpH7-B3 variant S298_16H/GpL16-k0 (antibody, human IgG1, kappa)
heavy 1: not shown
heavy 2: not shown
light: B1 light
notes: as for B1
As for B14, the He/Con_1a in the test with FcγRIa is 109 relative, HeCon Ab = 100. For the same molecule, in the test with FcγRIIb, the He/Con_2b is 63.5 relative, HeCon Ab = 100.

B15: GpH7-A5/GpH7-B3 variant Y296_07I/GpL16-k0 (antibody, human IgG1, kappa)
heavy 1: not shown
heavy 2: not shown
light: B1 light
notes: as for B1
On to B15, for which the He/Con_1a in the test with FcγRIa is 104 relative, HeCon Ab = 100. In the test with FcγRIIb, the He/Con_2b is 84.3 relative, HeCon Ab = 100.

B16: GpH7-A5/GpH7-B3 variant Q295_14T/GpL16-k0 (antibody, human IgG1, kappa)
heavy 1: not shown
heavy 2: not shown
light: B1 light
notes: as for B1
Turning to B16, the He/Con_1a with FcγRIa is 103 relative, HeCon Ab = 100. In addition, the He/Con_2b with FcγRIIb is 66.8 relative, HeCon Ab = 100.

B17: GpH7-A5/GpH7-B3 variant Y296_19Q/GpL16-k0 (antibody, human IgG1, kappa)
heavy 1: not shown
heavy 2: not shown
light: B1 light
notes: as for B1
With B17, the He/Con_1a with FcγRIa was 112 relative, HeCon Ab = 100. For the same molecule, in the test with FcγRIIb, the He/Con_2b is 89.3 relative, HeCon Ab = 100.

B18: GpH7-A5/GpH7-B3 variant A330_03V/GpL16-k0 (antibody, human IgG1, kappa)
heavy 1: not shown
heavy 2: not shown
light: B1 light
notes: as for B2
In the case of B18, in test [1], the He/Con_1a was 106 % of control GpH7-A5/GpH7-B3/GpL16-k0 (=100). Moreover, the He/Con_2b in test [2] is 52.4 % of control GpH7-A5/GpH7-B3/GpL16-k0 (=100).

B19: GpH7-A5/GpH7-B3 variant Y296_08L/GpL16-k0 (antibody, human IgG1, kappa)
heavy 1: not shown
heavy 2: not shown
light: B1 light
notes: as for B1
B19: the He/Con_1a with FcγRIa is 104 relative, HeCon Ab = 100. The He/Con_2b in the test with FcγRIIb is 82.3 relative, HeCon Ab = 100.

B20: GpH7-A5/GpH7-B3 variant S298_03V/GpL16-k0 (antibody, human IgG1, kappa)
heavy 1: not shown
heavy 2: not shown
light: B1 light
notes: as for B1
As for B20, the He/Con_1a in the test with FcγRIa was 110 relative, HeCon Ab = 100. For the same molecule, the He/Con_2b in the test with FcγRIIb is 64.5 relative, HeCon Ab = 100.
